Target: T1, human ecto-nucleoside triphosphate diphosphohydrolase-3 (NTPDase3) (human) (UniProt O75355)
T1 sequence (looked up): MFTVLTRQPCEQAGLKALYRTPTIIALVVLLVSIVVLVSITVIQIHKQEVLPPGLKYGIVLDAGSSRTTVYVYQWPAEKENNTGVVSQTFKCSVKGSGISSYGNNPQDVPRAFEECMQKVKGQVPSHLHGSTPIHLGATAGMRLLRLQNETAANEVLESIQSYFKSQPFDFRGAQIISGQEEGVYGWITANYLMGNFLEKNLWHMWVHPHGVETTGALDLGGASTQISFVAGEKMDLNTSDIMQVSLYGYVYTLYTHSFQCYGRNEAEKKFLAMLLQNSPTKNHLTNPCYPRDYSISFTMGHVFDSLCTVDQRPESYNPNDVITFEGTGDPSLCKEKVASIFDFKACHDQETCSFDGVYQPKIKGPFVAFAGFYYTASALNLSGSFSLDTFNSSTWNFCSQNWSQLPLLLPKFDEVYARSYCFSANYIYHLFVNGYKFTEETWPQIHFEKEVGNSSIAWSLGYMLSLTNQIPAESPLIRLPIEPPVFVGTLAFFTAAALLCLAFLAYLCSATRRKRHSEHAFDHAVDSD
Assay: cell-based or functional assay

B1: 8E1 hIgG1 (antibody, V domains shown)
VH: EQQLLESGGGLVQPGGSLRLSCAVSGFSLSSYAMGWVRQAPGKGLEFIGIISYSGNTYYASWAKGRFTISKDSSKNTVYLQMNSLRAEDTAVYFCARARYGGYSTNSYYLNIWGPGTLVTVSS
VL: DVQMTQSPSTLSASVGDRVTITCQASENIYRVLAWYQQKPGKRPKLLIYGASNLESGVPSRFSGSGSGTEYTLTISSLQPDDFATYYCQGVVYNSDDSAFGGGTKVEIK
ADCC EC50 (µg/mL), NFAT luciferase reporter Jurkat/hCD16a-158V: 0.047 µg/mL
ADCC fold increase in relation to parental clone at 1 µg/mL: 1.5 fold
CDC % of Maximal Cytotoxicity: 25%
CDC EC50: 0.867 µg/mL
CDC: fold increase in the maximal CDC cytotoxicity over the parental 8E1 Hu/Ra chimeric clone: 2 fold
Enzyme Activity Inhibition Capacity: % of Maximal Inhibition: 15%

— US20240052061A1
